Target: human PD-L1 full-length protein on cells (human) (UniProt Q9NZQ7)
Assay: cell-based or functional assay

Chain of human PD-L1 full-length protein on cells (human) (Q9NZQ7 19-290): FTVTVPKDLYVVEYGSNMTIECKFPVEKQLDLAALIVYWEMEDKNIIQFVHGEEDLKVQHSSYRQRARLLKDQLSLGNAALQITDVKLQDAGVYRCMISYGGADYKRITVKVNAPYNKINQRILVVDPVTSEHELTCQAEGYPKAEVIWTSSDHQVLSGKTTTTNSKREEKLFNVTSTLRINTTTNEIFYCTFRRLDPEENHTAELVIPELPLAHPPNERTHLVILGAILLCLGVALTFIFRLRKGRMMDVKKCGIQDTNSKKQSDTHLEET

Substance | MOA NFAT reporter signal (Bio-Glo) at 0.005 nm | MOA NFAT reporter signal (Bio-Glo) at 0.015 nm | MOA NFAT reporter signal (Bio-Glo) at 0.046 nm | MOA NFAT reporter signal (Bio-Glo) at 0.137 nm | MOA NFAT reporter signal (Bio-Glo) at 0.412 nm | MOA NFAT reporter signal (Bio-Glo) at 1.235 nm | MOA NFAT reporter signal (Bio-Glo) at 3.704 nm | MOA NFAT reporter signal (Bio-Glo) at 11.111 nm | MOA NFAT reporter signal (Bio-Glo) at 33.333 nm | MOA NFAT reporter signal (Bio-Glo) at 100.000 nm | MOA NFAT reporter signal (Bio-Glo) at 100.000 nm, negative control
Atezolizumab (antibody) | 16900 | 18400 | 17200 | 19200 | 29300 | 70800 | 96900 | 96500 | 98000 | 94000 | 
Durvalumab (antibody) | 18200 |  | 20300 | 23200 | 53100 | 89700 | 103000 | 97900 | 102000 | 94100 | 
IgG1 negative control (antibody) |  |  |  |  |  |  |  |  |  |  | 15700

From patent US20190023793A1
